Results as given in US9045527 (dated 2015).
Where no end group is shown, it is not given here.

Key:
[1] = target: T1, CAL PDZ domain (CALP), wild type (UniProt Q9HD26 278-362); assay: fluorescence anisotropy displacement; Fig 9B
[2] = target: T1, CAL PDZ domain (CALP), wild type; assay: fluorescence anisotropy displacement; Fig 9A
N1P1 = assay: fluorescence anisotropy displacement; Fig 9B
CALP-H301A mutant = CALP-H301A mutant (UniProt Q9HD26 278-362); assay: fluorescence anisotropy displacement; Fig 9B
[3] = target: T1, CAL PDZ domain (CALP), wild type; assay: fluorescence anisotropy displacement; Fig 9A; upper bound, nonspecific Rh inhibition

Binder	Ki [1] [nM]	Ki (N1P1) [nM]	also measured
Ac-E(dirhodium)WPTSII-OH (also: dirhodium metal complex at Glu side chain) [E^RhWPTSII metallopeptide]	1300	–	–
Ac-QLDVTR [QLDVTR peptide (scrambled control sequence)]	–	–	Ki [2]: > 500000 nM
Ac-VQD(dirhodium)TRL-OH (also: dirhodium metal complex at Asp side-chain carboxylate) [VQD^RhTRL metallopeptide]	~49000	–	–
Ac-VQDTRL-OH	–	700	–
Ac-E(dirhodium)VQSTRL-OH (also: dirhodium metal complex at Glu side-chain carboxylate) [E^RhVQSTRL metallopeptide]	430	–	Ki (CALP-H301A mutant): 11300 nM
Ac-EWPTSII-OH	–	> 500000	–
Ac-E(dirhodium)WPTSII-OH (also: dirhodium metal complex at Glu side chain) [E(Rh)WPTSII]	–	> 50000	–
Ac-QLD(dirhodium)VTR (also: dirhodium metal complex at Asp side-chain carboxylate) [QLD^RhVTR metallopeptide]	–	–	Ki [3]: 10000 nM
Ac-EVQSTRL-OH	–	710	–
Ac-E(dirhodium)VQSTRL-OH (also: dirhodium metal complex at Glu side-chain carboxylate) [E(Rh)VQSTRL]	–	32	–
